This experiment addresses T1, recombinant mouse IL-1RI Fc chimera (R&D 771-MR-100) (mouse, UniProt P13504 20-338).
T1 construct: Coated on ELISA plates at 1 µg/ml; Used instead of canine or feline IL-1RI, which were not commercially available; also called IL-1RI receptor; Fc part of the bought chimera not given
T1 sequence (looked up): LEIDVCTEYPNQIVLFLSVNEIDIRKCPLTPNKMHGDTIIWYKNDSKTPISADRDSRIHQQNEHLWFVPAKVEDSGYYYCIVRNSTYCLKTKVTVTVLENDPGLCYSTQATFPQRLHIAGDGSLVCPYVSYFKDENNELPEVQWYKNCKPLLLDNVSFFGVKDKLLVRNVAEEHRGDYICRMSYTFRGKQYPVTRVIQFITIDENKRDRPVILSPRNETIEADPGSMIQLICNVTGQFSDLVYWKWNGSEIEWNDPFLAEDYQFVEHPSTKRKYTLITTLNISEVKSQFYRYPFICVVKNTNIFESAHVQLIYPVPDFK
As to the kind of experiment: ELISA, mouse IL-1RI Fc chimera coated, detection with biotinylated anti-fIL-1β antibody.

B1: purified feline IL-1β wild type (ligand)
chain: MGSAAIQSQDYTFRDISQKSLVLSGSYELRALHLNGQNMNQQVVFRMSFVHGEENSKKIPVVLCIKKNNLYLSCVMKDGKPTLQLEMLDPKVYPKKKMEKRFVFNKTEIKGNVEFESSQFPNWYISTSQAEEMPVFLGNTKGGQDITDFIMESASTSHHHHHHGGCG
notes: also called purified wild type feline IL-1β; recombinant feline wild type IL-1β
For the molecule B1, the binding result is given as “binds”.

Source of the values: patent US20250281587A1 (ELANCO US, published 2025).
